Test results as given in patent US20260242478A1 (published 2026).
Where no end group is shown, it is not given here.

B1: Phage-822 (Peptide-87 library peptide, SEQ ID NO: 1138) (peptide)
peptide: YCDGHLGVYMAKCL
B2: Phage-817 (Peptide-87 library peptide, SEQ ID NO: 1133) (peptide)
peptide: YCAGHLPMYMAKCL
B3: Phage-821 (Peptide-87 library peptide, SEQ ID NO: 1137) (peptide)
peptide: YCDGHLSEYMFKCL
B4: Phage-820 (Peptide-87 library peptide, SEQ ID NO: 1136) (peptide)
peptide: YCAGHAEQYMAKCL
B5: Phage-818 (Peptide-87 library peptide, SEQ ID NO: 1134) (peptide)
peptide: YCDGHTREYIDKCL
B6: Phage-815 (Peptide-87 library peptide, SEQ ID NO: 1131) (peptide)
peptide: YCAGHLPQYMNKCL
B7: Phage-816 (Peptide-87 library peptide, SEQ ID NO: 1132) (peptide)
peptide: YCDGHKAEYMEKCL
B8: Phage-819 (Peptide-87 library peptide, SEQ ID NO: 1135) (peptide)
peptide: YCVGHAPEFMAKCL
B9: Phage-814 (Peptide-87 library peptide, SEQ ID NO: 1130) (peptide)
peptide: YCQGHSAEYMMKCL
B10: Phage-823 (Peptide-87 library peptide, SEQ ID NO: 1139) (peptide)
peptide: YCDGHTSEYITKCL
B11: Phage-807 (peptide)
peptide: YCDGHLPLYMHKCL
modifications: cysteine pairing not given here; also: displayed on phage by fusion to pIII, pIII and linker sequence not given here
notes: Clonal phage of the Peptide-87 library; not shown: fused to the pIII filament protein of the bacteriophage
B12: Phage-809 (peptide)
peptide: YCDGHAREYMTKCL
modifications: cysteine pairing not given here; also: displayed on phage by fusion to pIII, pIII and linker sequence not given here
notes: as for B11
B13: Phage-806 (peptide)
peptide: YCDGHSAEYMEKCI
modifications: cysteine pairing not given here; also: displayed on phage by fusion to pIII, pIII and linker sequence not given here
notes: as for B11
B14: Phage-803 (peptide)
peptide: YCEGHAAEYMWKCL
modifications: cysteine pairing not given here; also: displayed on phage by fusion to pIII, pIII and linker sequence not given here
notes: as for B11
B15: Phage-808 (peptide)
peptide: YCEGHAPQYLNKCL
modifications: cysteine pairing not given here; also: displayed on phage by fusion to pIII, pIII and linker sequence not given here
notes: as for B11
B16: Phage-805 (peptide)
peptide: YCEGHSPMYMQKCM
modifications: cysteine pairing not given here; also: displayed on phage by fusion to pIII, pIII and linker sequence not given here
notes: as for B11
B17: Phage-810 (peptide)
peptide: YCDGHTEEYMDKCL
modifications: cysteine pairing not given here; also: displayed on phage by fusion to pIII, pIII and linker sequence not given here
notes: as for B11
B18: Phage-804 (peptide)
peptide: YCEGHSAEYIFKCL
modifications: cysteine pairing not given here; also: displayed on phage by fusion to pIII, pIII and linker sequence not given here
notes: as for B11
B19: Phage-801 (peptide)
peptide: YCDGHLPMYFAKCM
modifications: cysteine pairing not given here; also: displayed on phage by fusion to pIII, pIII and linker sequence not given here
notes: as for B11
B20: Phage-811 (peptide)
peptide: YCDGHSSMYMAKCL
modifications: cysteine pairing not given here; also: displayed on phage by fusion to pIII, pIII and linker sequence not given here
notes: as for B11
B21: Phage-802 (peptide)
peptide: YCDGHSSEYIVKCL
modifications: cysteine pairing not given here; also: displayed on phage by fusion to pIII, pIII and linker sequence not given here
notes: as for B11
B22: Phage-813 (peptide)
peptide: YCEGHSAEFMTKCL
modifications: cysteine pairing not given here; also: displayed on phage by fusion to pIII, pIII and linker sequence not given here
notes: as for B11
B23: Phage-812 (peptide)
peptide: YCAGHSSEYIWKCL
modifications: cysteine pairing not given here; also: displayed on phage by fusion to pIII, pIII and linker sequence not given here
notes: as for B11
B24: Phage-788 (peptide)
peptide: YCDGHMPEYLAKCL
B25: Phage-799 (peptide)
peptide: YCEGHLPEYMRKCL
B26: Phage-790 (peptide)
peptide: YCAGHSSEYMWKCL
B27: Phage-792 (peptide)
peptide: YCDGHSAAYIMKCL
B28: Phage-796 (peptide)
peptide: YCEGHLQIYMSKCL
B29: Phage-800 (peptide)
peptide: YCDGHSPAYMAKCL
B30: Phage-794 (peptide)
peptide: YCEGHSQEYMQKCL
B31: Phage-789 (peptide)
peptide: YCEGHAAEYMSKCL
B32: Phage-798 (peptide)
peptide: YCEGHRPEYMAKCL
B33: Phage-791 (peptide)
peptide: YCDGHSWAYMWKCL
B34: Phage-795 (peptide)
peptide: YCAGHLPEYLSKCL
B35: Phage-797 (peptide)
peptide: YCAGHAPEYMFKCM
B36: Phage-793 (peptide)
peptide: YCDGHSLQYLGKCL

What follows are binders tested against Anti-CD28 Fab (SEQ ID NOs: 696, 697) (assay: phage ELISA on captured anti-CD28 Fab; competitor CD28 antigen pre-incubated in the wells;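 further: clonal phage supernatants added to wells preloaded with CD28 antigen in blocking buffer, control wells buffer only, bound phage read via HRP-linked anti-M13 antibody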).
Target sequence in this assay (VH, as listed by the source, chain 1 of 2): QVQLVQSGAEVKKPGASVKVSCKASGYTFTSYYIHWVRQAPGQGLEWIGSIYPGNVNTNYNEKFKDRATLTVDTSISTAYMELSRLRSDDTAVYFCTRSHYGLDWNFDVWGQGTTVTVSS
Target sequence in this assay (VL, as listed by the source, chain 2 of 2): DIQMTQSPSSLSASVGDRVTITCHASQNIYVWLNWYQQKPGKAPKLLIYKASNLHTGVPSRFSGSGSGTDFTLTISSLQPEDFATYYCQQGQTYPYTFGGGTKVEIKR
Experimental: (§1) After panning, phage infected bacteria were plated out and colonies picked into 96 well blocks. Clonal phage was then amplified and separated from bacterial cells via centrifugation.
(§2) Clonal phage were harvested as crude supematants and screened via standard ELISAs. […] Prior to the addition of clonal phage, wells were incubated with blocking buffer and CD28 antigen or blocking buffer alone. Without washing or aspirating, clonal phage supematants were then added to the wells and incubated for a short time. Wells were then washed followed by detection of bound phage using a horse radish conjugated anti-M13 antibody. Clonal phage of interest were then sent for sequence analysis.

Binder	Phage binding ELISA, Anti-CD28 Fab signal in the presence of CD28
B1	0.07
B2	0.08
B3	0.1
B4	0.08
B5	0.08
B6	0.06
B7	0.09
B8	0.1
B9	0.07
B10	0.07

These binders were tested against T1, Anti-CD28 Fab (SEQ ID NOs: 696, 697) (assay: phage binding ELISA; Fab on plate pre-incubated with CD28 antigen as competitor, anti-M13 HRP detection;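 further: crude clonal phage supernatants screened by ELISA, with comparison wells pre-incubated in blocking buffer only, lacking CD28 antigen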).
T1 construct: Biotinylated and captured on neutravidin coated plates in the phage ELISA
T1 sequence (VH, as listed by the source, chain 1 of 2): as the sequence (VH, as listed by the source, chain 1 of 2) above
T1 sequence (VL, as listed by the source, chain 2 of 2): as the sequence (VL, as listed by the source, chain 2 of 2) above
Experimental: as §1, §2

Binder	Anti-CD28 Fab signal in the presence of CD28
B11	0.07
B12	0.06
B13	0.07
B14	0.07
B15	0.08
B16	0.06
B17	0.09
B18	0.05
B19	0.06
B20	0.06
B21	0.06
B22	0.06
B23	0.06

These binders were tested against Anti-CD28 Fab (SEQ ID NOs: 696, 697) (assay: phage ELISA; clonal phage on biotinylated anti-CD28 Fab captured on neutravidin, anti-M13 HRP detection).
Target sequence in this assay (VH, as listed by the source, chain 1 of 2): as the sequence (VH, as listed by the source, chain 1 of 2) above
Target sequence in this assay (VL, as listed by the source, chain 2 of 2): as the sequence (VL, as listed by the source, chain 2 of 2) above
Experimental: as §1, §2

Binder	Phage binding ELISA, Anti-CD28 Fab signal
B1	1.79
B2	1.8
B3	1.79
B4	1.8
B5	1.8
B6	1.81
B7	1.81
B8	1.8
B9	1.81
B10	1.79

What follows are binders tested against T1, Anti-CD28 Fab (SEQ ID NOs: 696, 697) (assay: phage binding ELISA; biotinylated Fab on neutravidin plate, clonal phage supernatant, anti-M13 HRP detection;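 further: phage from clones picked after panning, added to wells pre-incubated with blocking buffer with or without CD28 antigen, then briefly incubated and washed before detection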).
Experimental: as §1, §2

Binder	Anti-CD28 Fab (SEQ ID NOs: 696, 697) signal
B11	1.82
B12	1.82
B13	1.83
B14	1.83
B15	1.82
B16	1.83
B17	1.82
B18	1.83
B19	1.83
B20	1.82
B21	1.83
B22	1.81
B23	1.82

What follows are binders tested against Anti-CD28 Fab (SEQ ID NOs: 696, 697) (assay: phage binding ELISA; anti-CD28 Fab on plate pre-incubated with CD28 antigen as competitor, anti-M13 HRP detection).
Target sequence in this assay (VH, as listed by the source, chain 1 of 2): as the sequence (VH, as listed by the source, chain 1 of 2) above
Target sequence in this assay (VL, as listed by the source, chain 2 of 2): as the sequence (VL, as listed by the source, chain 2 of 2) above
Experimental: as §1, §2

Binder	Anti-CD28 Fab signal in the presence of CD28 (phage binding ELISA)
B24	0.07
B25	0.06
B26	0.07
B27	0.09
B28	0.14
B29	0.1
B30	0.05
B31	0.07
B32	0.07
B33	0.13
B34	0.07
B35	0.06
B36	0.09

Each binder was assayed against Anti-CD28 Fab (SEQ ID NOs: 696, 697) (assay: phage binding ELISA; biotinylated anti-CD28 Fab on neutravidin plate, clonal phage supernatant, anti-M13 HRP detection).
Target sequence in this assay (VH, as listed by the source, chain 1 of 2): as the sequence (VH, as listed by the source, chain 1 of 2) above
Target sequence in this assay (VL, as listed by the source, chain 2 of 2): as the sequence (VL, as listed by the source, chain 2 of 2) above

Binder	Anti-CD28 Fab signal (phage binding ELISA)
B24	1.86
B25	1.83
B26	1.85
B27	1.84
B28	1.84
B29	1.83
B30	1.84
B31	1.86
B32	1.83
B33	1.85
B34	1.84
B35	1.83
B36	1.84
